pKd: −log10 of the molar value.
Tests used:
[1] = molecular target: CH103-S14P (human); assay: BLI; […]; mAb (20 ug/mL in PBS) […] (AHC) […], association 400 s, […]; 1:1 model; […]
[2] = molecular target: CH106 (human); assay: as above
[3] = molecular target: CH103 UCA-S30G/S31G (human); assay: as above
[4] = molecular target: CH103 UCA (human); assay: as above
[5] = molecular target: CH103 UCA-P14S (human); assay: as above
[6] = molecular target: CH103 (human); assay: as above
[7] = molecular target: CH103 UCA-S30G (human); assay: as above
[8] = molecular target: I4-S14P (human); assay: as above
[9] = molecular target: CH103-S14P/G30S (human); assay: as above
[10] = molecular target: I4-S14P/G30S (human); assay: as above
[11] = molecular target: C.CH505TF SOSIP.664.v4.1 (HIV-1 (C.CH505 transmitted/founder))
[12] = molecular target: CH106 (human); assay: SPR; BIAcore T200; […]) 5 min at 50 µL/min, 10 min dissociation; […]; global 1:1 Langmuir fit; […]
[13] = molecular target: CH103 (human); assay: as above
[14] = molecular target: I8 (CH103 lineage intermediate) (human); assay: as above
[15] = molecular target: I3 (CH103 lineage intermediate) (human); assay: as above
[16] = molecular target: CH103-S14P (human); assay: SPR
[17] = molecular target: CH106 (human); assay: SPR
[18] = molecular target: CH103 lineage intermediate I3 (human); assay: SPR
[19] = molecular target: CH103 (human); assay: SPR
[20] = molecular target: CH103 lineage intermediate I8 (human); assay: SPR
[21] = molecular target: CH103-S14P/G30S (human); assay: SPR
[22] = molecular target: CH106 (human); assay: BLI; […] (AHC) […]; 1:1 model; […]
[23] = molecular target: UCA-S30G/S31G (human); assay: BLI; […] (AHC) […]; 1:1 model; […]
[24] = molecular target: CH103 UCA (human); assay: BLI; […] (AHC) […]; 1:1 model; […]
[25] = molecular target: CH103 (human); assay: BLI; […] (AHC) […]; 1:1 model; […]
[26] = molecular target: UCA-P14S (human); assay: BLI; […] (AHC) […]; 1:1 model; […]
[27] = molecular target: CH103-S14P/G30S (human); assay: BLI; […] (AHC) […]; 1:1 model; […]
[28] = molecular target: I4-S14P/G30S (human); assay: BLI; […] (AHC) […]; 1:1 model; […]
[29] = molecular target: UCA-S30G (human); assay: BLI; […] (AHC) […]; 1:1 model; […]
[30] = molecular target: C.CH505TF gp120 (HIV-1 clade C, CH505 transmitted/founder) (UniProt M4M0W3); assay: SPR

Sequence of CH103-S14P/G30S (human) (heavy, as listed by the source, chain 1 of 2): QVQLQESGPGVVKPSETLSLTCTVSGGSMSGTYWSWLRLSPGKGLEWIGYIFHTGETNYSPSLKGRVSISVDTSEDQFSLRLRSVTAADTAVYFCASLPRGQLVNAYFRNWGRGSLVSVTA
Sequence of CH103-S14P/G30S (human) (light, as listed by the source, chain 2 of 2): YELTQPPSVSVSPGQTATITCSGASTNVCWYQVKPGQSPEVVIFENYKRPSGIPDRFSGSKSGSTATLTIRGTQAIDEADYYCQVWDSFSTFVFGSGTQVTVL
Sequence of CH106 (human) (heavy, as listed by the source, chain 1 of 2): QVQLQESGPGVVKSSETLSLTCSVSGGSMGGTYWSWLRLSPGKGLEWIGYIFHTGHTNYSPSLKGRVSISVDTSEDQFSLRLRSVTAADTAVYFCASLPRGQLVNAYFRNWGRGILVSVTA
Sequence of CH106 (human) (light, as listed by the source, chain 2 of 2): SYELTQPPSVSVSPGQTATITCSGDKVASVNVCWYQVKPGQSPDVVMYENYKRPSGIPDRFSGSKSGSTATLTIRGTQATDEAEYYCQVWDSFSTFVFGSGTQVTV
Sequence of CH103 (human) (heavy, as listed by the source, chain 1 of 2): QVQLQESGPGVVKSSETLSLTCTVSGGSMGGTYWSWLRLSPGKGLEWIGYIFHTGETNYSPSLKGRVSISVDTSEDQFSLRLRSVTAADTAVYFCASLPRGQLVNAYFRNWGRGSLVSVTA
Sequence of CH103-S14P (human) (heavy, as listed by the source, chain 1 of 2): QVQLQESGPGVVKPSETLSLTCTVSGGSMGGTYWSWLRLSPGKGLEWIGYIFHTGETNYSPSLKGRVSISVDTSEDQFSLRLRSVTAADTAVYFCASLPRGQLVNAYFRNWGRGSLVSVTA

## C.CH505TF.SOSIP.664.v4.1 (complex)
[1]
  pKd: 7.70
  koff: 1.8e-05 s⁻¹
  kon: 890 M⁻¹ s⁻¹
[2]
  koff: 3.6e-06 s⁻¹
  kon: 670 M⁻¹ s⁻¹
[3]
  koff: 0.0012 s⁻¹
  kon: 1400 M⁻¹ s⁻¹
[4]
  koff: 0.00168 s⁻¹
  kon: 1100 M⁻¹ s⁻¹
[5]
  koff: 0.0015 s⁻¹
  kon: 900 M⁻¹ s⁻¹
[6]
  koff: 1.5e-05 s⁻¹
  kon: 930 M⁻¹ s⁻¹
[7]
  koff: 0.0015 s⁻¹
  kon: 860 M⁻¹ s⁻¹
[8]
  pKd: 6.96
  koff: 0.00027 s⁻¹
  kon: 2460 M⁻¹ s⁻¹
[9]
  koff: 6.6e-05 s⁻¹
  kon: 450 M⁻¹ s⁻¹
[10]
  koff: 0.00034 s⁻¹
  kon: 2120 M⁻¹ s⁻¹

## CH103 (antibody)
[11]
  IC80 of neutralisation of the autologous CH505TF Env-pseudovirus, TZM-bl cells (Env on the virus, not the SOSIP trimer): 6.4 µg/mL

## B.63521 D11 gp120 (domain or fragment)
[12]
  pKd: 7.85
[13]
  pKd: 8.96
[14]
  kon: 170 M⁻¹ s⁻¹
[15]
  pKd: 5.38
  fold faster ka than I8: > 50 fold
[16]
  pKd: 8.68
  koff: 2e-05 s⁻¹
  kon: 9100 M⁻¹ s⁻¹
[17]
  koff: 0.000229 s⁻¹
  kon: 16000 M⁻¹ s⁻¹
[18]
  koff: 0.0225 s⁻¹
  kon: 5300 M⁻¹ s⁻¹
[19]
  koff: 2e-05 s⁻¹
  kon: 15000 M⁻¹ s⁻¹
[20]
  pKd: 3.17
  koff: 0.113 s⁻¹
[21]
  pKd: 8.40
  koff: 2.9e-05 s⁻¹
  kon: 8210 M⁻¹ s⁻¹

## C.CH505TF SOSIP.664.v4.1 (complex)
[22]
  pKd: 8.30
[23]
  pKd: 6.10
[24]
  pKd: 5.82
[25]
  pKd: 7.80
[26]
  pKd: 5.77
[27]
  pKd: 6.82
[28]
  pKd: 6.80
[29]
  pKd: 5.74

## I4-S14P/G30S (antibody)
[11]
  IC50 of neutralisation of the autologous CH505TF Env-pseudovirus, TZM-bl cells (Env on the virus, not the SOSIP trimer): 43.2 µg/mL
  IC80 of neutralisation of the autologous CH505TF Env-pseudovirus, TZM-bl cells (Env on the virus, not the SOSIP trimer): > 50 µg/mL
[30]
  pKd: 7.00
  koff: 0.00101 s⁻¹
  kon: 10000 M⁻¹ s⁻¹

## I4-S14P (antibody)
[11]
  IC50 of neutralisation of the autologous CH505TF Env-pseudovirus, TZM-bl cells (Env on the virus, not the SOSIP trimer): 14.8 µg/mL
  IC80 of neutralisation of the autologous CH505TF Env-pseudovirus, TZM-bl cells (Env on the virus, not the SOSIP trimer): > 50 µg/mL
[30]
  pKd: 7.40
  koff: 0.00053 s⁻¹
  kon: 13100 M⁻¹ s⁻¹

## CH103-S14P (antibody)
[11]
  IC80 of neutralisation of the autologous CH505TF Env-pseudovirus, TZM-bl cells (Env on the virus, not the SOSIP trimer): 12.8 µg/mL

## CH103-S14P/G30S (antibody)
[11]
  IC80 of neutralisation of the autologous CH505TF Env-pseudovirus, TZM-bl cells (Env on the virus, not the SOSIP trimer): 15.5 µg/mL
